{"source": "patent US20140079722A1", "about": "“EXTRACELLULAR TARGETED DRUG CONJUGATES” (CENTROSE, LLC, priority 2011, published 2014)", "molecules": {"B1": {"name": "M53-PEG24-CEN09-106: Class 1 EDC: antibody M53 conjugated to linker-ready agent PEG24-CEN09-106 (scillarenin, 4-amino-xyloside, PEG24) (conjugate)", "heavy": "EVQLVESGGGLVQPKGTLKLSCAASGFSFNTHAMNWVRQAPGKSLEWVARTMSKSNNYATYYADSVKDRFIIRADDSQSMLYLQMNNLKTEDTAMYYCVRDDPKRGMDYWGQGTSVTVSSAKTTPPSVYPLAPGSAAQTNSMVTLGCLVKGYFPEPVTVTWNSGSLSSGVHTFPAVLQSDLYTLSSSVTVPSSTWPSETVTCNVAHPASSTKVDKKIE", "light": "GIVMSQSPSSLAVSVGEKVTMSCKPSQSLLYSRNQKIYLAWYQQKPGQSPKLLIYWASTRESGVPDRFTGSGSGTDFTLIISSVRAEDLAVYYCQQYYNYPLTFGAGTKLELKRADAAPTVSIFPPSSEQLTSGGASVVCFLNNFYPKDINVKWKIDGSERQNGVLNSWTDQDSKDSTYSMSSTLTLTKDEYERHNSYTCEATHKTSTSPIVKSFNR"}}, "key": {"A549 xenograft": {"tested_on": "A549 xenograft", "experiment": "A549 xenograft model (cell implant)", "type": "in vivo, Hsd:Athymic Nude-Foxn1nu mice", "description": "Briefly, to establish a non-small-cell lung cancer disease model, 6×10^6 A549 cells in 200 μL, RPMI1640+50% Matrigel HC (BD Biosciences, San Jose, Calif.) were implanted into the left flank of Hsd:Athymic Nude-Foxn1^nu mice (Harlan, Indianapolis, Ind.). Therapy with antibody-drug conjugates was then initiated when the tumor volume in groups of 5 animals averaged ˜300 mm^3. Treatment using vehicle control, 0.1 and 1 mg/kg M53-PEG24-CEN09-106, and 10 mg/kg control M53-PEG24-CEN09-106 (a control conjugate with a drug loading of 7 drugs per antibody where the antibody's target is not on the cell surface but drug and linker and antibody isotype are the same as M53-PEG24-CEN09-106) were all administered i.v. using the schedule of one injection every 7 days with 3 total injected doses (q7d×3). 15 mg/kg paclitaxel dosed at q2d×5 served as a positive control treatment group. Using this schedule, tumor volumes were measured for each group using calibrated vernier calipers and plotted against first day of tumor implant for 54 days post-implant and 40 days post-initial dose, to produce the graph shown in FIG. 3."}, "H460 xenograft": {"tested_on": "H460 xenograft", "experiment": "H460 xenograft model", "type": "in vivo, Hsd:Athymic Nude-Foxn1nu mice", "description": "Briefly, to establish a large-cell lung cancer disease model, 1×10^6 H-460 cells in 100 μL RPMI1640+30% Matrigel HC (BD Biosciences, San Jose, Calif.) were implanted into the left flank of Hsd:Athymic Nude-Foxn1^nu mice (Harlan, Indianapolis, Ind.). Therapy was initiated when the tumor size in groups of 5 animals averaged ˜200 mm^3. Treatment using vehicle control, M53-PEG24-CEN09-106 at 0.1 and 1 mg/kg, and 10 mg/kg control M53-PEG24-CEN09-106 (as described above) consisted of multiple i.v. injections using the schedule of one injection every 7 days for 2 injections (q7d×2). Paclitaxel served as a positive control treatment group and was dosed i.v. at 15 mg/kg using the schedule of one injection every 2 days for 5 injections (q2d×5). Using this schedule, tumor volumes were measured for each group using calibrated vernier calipers and plotted against day of tumor implant for 24 days post-implant and 12 days post-initial dose, graphed and shown in FIG. 5."}, "Panc-1 xenografts": {"tested_on": "Panc-1 xenografts", "experiment": "Panc-1 subcutaneous xenograft model (tumor fragments)", "type": "in vivo, female HRLN nu/nu mice", "settings": "drug loading of 7; 1, 5, 15 mg/kg iv Q3Dx7 or Q7Dx3", "description": "In another study, the Panc-1 subcutaneous xenograft model was used to evaluate antitumor activity of M53-PEG24-CEN09-106 with a drug loading of 7 drugs per antibody. Subcutaneous Panc-1 xenografts were initiated in female HRLN nu/nu mice by implanting 1 mm^3 PANC-1 tumor fragments were implanted subcutaneously into the right flank, tumor growth was monitored and mice bearing tumors of 80-120 mm^3 were selected for the study. Tumor volume was measured for each group 2× per week using calibrated vernier calipers plotted against day of first dose to produce the graph shown in FIG. 7. Among the treatment groups, no toxic effects were observed (toxicity determined as >10% weight loss during study period)."}}}
{"molecule": "B1", "values": [{"measurement": "growth inhibition of the tumor compared to vehicle", "setting": "A549 xenograft; drug loading of 8, 0.1 mg/kg i.v. q7dx3, A549 xenograft", "result": 35, "unit": "%"}, {"measurement": "growth inhibition of the tumor compared to vehicle", "setting": "A549 xenograft; drug loading of 8, 1 mg/kg i.v. q7dx3, A549 xenograft", "result": 65, "unit": "%"}, {"measurement": "weight loss", "setting": "H460 xenograft; EDC 0.1 mg/kg q7dx2, paclitaxel 15 mg/kg q2dx5, H460 xenograft", "result": "no weight loss"}, {"measurement": "growth inhibition of the tumor compared to vehicle", "setting": "H460 xenograft; drug loading of 8, 0.1 mg/kg i.v. q7dx2, H460 xenograft", "result": 38, "unit": "%"}, {"measurement": "growth inhibition of the tumor compared to vehicle", "setting": "H460 xenograft; drug loading of 8, 1 mg/kg i.v. q7dx2, H460 xenograft", "result": 73, "unit": "%"}, {"measurement": "tumor response compared to vehicle group", "setting": "Panc-1 xenografts", "result": "tumor reduction in a dose dependent manner"}]}
